Consider two molecules from patent US20140170136A1 (NVIP, published 2014).

One experiment concerns the target T1, murine NGF (mouse, UniProt P01139 122-241).
T1 construct: Coated on the ELISA plate; also called mouse NGF
As to the kind of experiment: ELISA: CHO supernatant on NGF, goat anti-equine IgG-HRP, OD450, against mock supernatant. As to the method: Equinised heavy and light chain cDNAs were transfected into CHO cells, the supernatants harvested and reacted in ELISA format with either equine or murine NGF. Following incubation and wash steps, the bound equine antibody was detected by reactivity with a goat-anti equine IgG specific polyclonal antibody linked to horseradish peroxidase (HRP) and developed using TMB. The optical density of the resulting product was measured at 450 nm and compared with that from mock empty vector transfected supernatant (denoted as “Mock” in FIG. 1). The results are shown in the graph of FIG. 1. Binding to mouse NGF is shown for the HC2 (IgG2 constant domain) equinised antibody (termed eqN-HC2+eqN-kLC-1). In the second part of the graph, binding of the eqN-HC2+eqN-kLC-1 antibody comprising the eqN-kLC-1 light chain and the eqN-HC2 (IgG2) constant chain to equine NGF is shown.
(In general: In an ELISA, binding on a coated surface is turned into a signal by an enzyme label.)

The target in experiment [1] is T2, complement C1q (from human serum) (human, UniProt P02745 23-245; P02746 28-253; P02747 29-245).
T2 construct: mature; Native C1q in human serum diluted 1/100
T2 sequence (P02745 23-245, chain 1 of 3): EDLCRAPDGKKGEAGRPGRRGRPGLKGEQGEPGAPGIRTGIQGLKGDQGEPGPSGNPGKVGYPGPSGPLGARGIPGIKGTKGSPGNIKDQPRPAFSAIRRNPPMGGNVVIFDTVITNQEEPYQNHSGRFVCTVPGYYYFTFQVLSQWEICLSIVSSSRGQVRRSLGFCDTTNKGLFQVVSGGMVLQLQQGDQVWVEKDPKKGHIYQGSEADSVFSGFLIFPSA
T2 sequence (P02746 28-253, chain 2 of 3): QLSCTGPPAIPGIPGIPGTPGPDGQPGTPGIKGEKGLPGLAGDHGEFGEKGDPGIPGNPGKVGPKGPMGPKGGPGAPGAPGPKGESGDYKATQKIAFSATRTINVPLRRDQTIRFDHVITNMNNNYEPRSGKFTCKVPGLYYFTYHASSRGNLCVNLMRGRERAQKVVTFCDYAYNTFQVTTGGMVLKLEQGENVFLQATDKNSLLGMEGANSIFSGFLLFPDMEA
T2 sequence (P02747 29-245, chain 3 of 3): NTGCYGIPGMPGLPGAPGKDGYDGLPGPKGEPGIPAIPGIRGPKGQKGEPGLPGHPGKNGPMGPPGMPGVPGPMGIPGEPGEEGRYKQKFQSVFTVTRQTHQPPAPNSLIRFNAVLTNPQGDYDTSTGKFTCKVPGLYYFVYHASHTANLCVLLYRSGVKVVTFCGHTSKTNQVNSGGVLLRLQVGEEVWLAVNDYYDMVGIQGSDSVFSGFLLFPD
As to the kind of experiment: ELISA: antibody captured on NGF-coated plate, human serum 1/100, bound C1q detected with anti-C1q-HRP, OD450. As to the method:
Protein A purified transfectant supernatants from Example 2 were incubated with plates coated with 0.1 ng/mL NGF to capture the antibodies. The plates were washed and then incubated with human serum and bound complement C1q was measured by binding of anti-human C1q polyclonal antibody HRP and developed as above. The binding of C1q to antigen-captured “eqN-HC2+eqN-kLC-1” was compared to a human anti-NGF MAb with human IgG1 Fc domain as positive control and an IgG4 variant as negative control.
Plates were coated with 100 μl/well of 5 μg/ml mouse NGF and blocked with 5% BSA/PBS. Coated wells were incubated for 1 hour at room temperature with cell culture supernatants, containing recombinant equine anti-NGF IgG, diluted in PBS/1% BSA (100 μl/well). The plates were washed and incubated for 1 hour at room temperature with 100 μl/well of human serum diluted 1/100 in veronal buffered saline containing 0.5 mM MgCl₂, 2 mM CaCl2, 0.05% Tween-20, 0.1% gelatin and 0.5% BSA. After washing, plates were incubated with 100 μl of a 1/800 dilution of sheep anti-C1q-HRP (Serotec) in PBS/1% BSA. After washing, plates were developed by the addition of 100 μl TMB substrate (Thermo Scientific). Development was stopped by the addition of 100 μl of 2N H₂SO₄ and absorbance read at 450 nm.

A further experiment has as its target T3, Protein A (UniProt P38507 37-327).
T3 construct: Column resin
Put plainly: Protein A affinity chromatography of CHO supernatant; antibody in fractions measured by quantitative NGF ELISA.

T1 sequence (P01139 122-241 limits assumed): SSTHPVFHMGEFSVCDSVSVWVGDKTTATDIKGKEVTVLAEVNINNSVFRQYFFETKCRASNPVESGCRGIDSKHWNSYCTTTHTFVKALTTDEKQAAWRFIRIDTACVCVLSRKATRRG

B1: eqN-HC2+eqN-kLC-1 (equinised αD11 anti-NGF antibody comprising the eqN-kLC-1 light chain and the eqN-HC2 (IgG2) heavy chain) (antibody)
heavy: QVQLKESGPGLVNPSQTLSLTCTVSGFSLTNNNVNWVRQAPGKGLEWVGGVWAGGATDYNSALKSRATITRDTSKSQVFLQMNSLTSEDTAVYYCARDGGYSSSTLYAMDAWGQGILVTVSSASTTAPKYFQLTPSCGITSDATVALGCLVSDYYPEPVTVSWNSGALTSGVHTFPSVLQSSGLYALSSMVTVPASTWTSETYICNVAHPASSTKVDKRIPPCVLSAEGVIPIPSVPKPQCPPYTHSKFLGGPSVFIFPPNPKDALMISRTPVVTCVVVNLSDQYPDVQFSWYVDNTEVHSAITKQREAQFNSTYRVVSVLPIQHQDWLSGKEFKCSVTNVGVPQPISRAISRGKGPSRVPQVYVLPPHPDELAKSKVSVTCLVKDFYPPDISVEWQSNRWPELEGKYSTTPAQLDGDGSYFLYSKLSLETSRWQQVESFTCAVMHEALHNHFTKTDISESLGK
light: DIVMTQSPASLSASLGETVTIECRASEDIYNALAWYQQKPGQSPKLLIYNTDTLHTGVPSRFSGSGSGTDYSLTINSLQSEDVASYFCQHYFHYPRTFGQGTKLELKRDDAKPSAFIFPPSSEELSSGSASVVCLVYGFYPSGATINWKVDGLAKTSSFHSSLTEQDSKDNTYSLSSTLTLPKADYEAHNVYACEVSHKTLSSPLVKSFKRQDC
notes: Tested as CHO transfectant supernatant or after Protein A purification; also called HC2 (IgG2 constant domain) equinised antibody; equinised HC2 antibody
For B1, the results for the binding result (in the experiment with murine NGF; in experiment [1]) were “binds” and “no binding”, respectively.

B2: HC6 variant of equinised αD11 (equinised anti-NGF antibody with eqN-HC6 heavy chain and equine kappa light chain) (antibody)
heavy: QVQLKESGPGLVNPSQTLSLTCTVSGFSLTNNNVNWVRQAPGKGLEWVGGVWAGGATDYNSALKSRATITRDTSKSQVFLQMNSLTSEDTAVYYCARDGGYSSSTLYAMDAWGQGILVTVSSASTTAPKVFQLASHSAGTSDSTVALGCLVSSYFPEPVTVSWNSGALTSGVHTFPSVRQSSGLYSLSSMVTVPASSLKSQTYICNVAHPASSTKVDKRIVIKEPCCCPKCPGRPSVFIFPPNPKDTLMISRTPEVTCVVVDVSQENPDVKFNWYVDGVEAHTATTKAKEKQDNSTYRVVSVLPIQHQDWRRGKEFKCKVNNRALPAPVERTITKAKGELQDPKVYILAPHREEVTKNTVSVTCLVKDFYPPDINVEWQSNEEPEPEVKYSTTPAQLDGDGSYFLYSKLTVETDRWEQGESFTCVVMHEAIRHTYRQKSITNFPGK
light: B1 light
notes: also called HC6 antibody; type 6 (HC6) antibody
As to B2, the binding result with Protein A is on record as “no binding”.
